Test results taken from patent publication US20260242735A1 (UNIVERSIT T BASEL, published 2026).

Key:
human CD33 N20A = human CD33 N20A (human, UniProt P20138 18-364); experiment: flow cytometry, alanine scan
human CD33 E27A = human CD33 E27A (human, UniProt P20138 18-364); experiment: flow cytometry, alanine scan
human CD33 H45A = human CD33 H45A (human, UniProt P20138 18-364); experiment: flow cytometry, alanine scan
human CD33 T30A = human CD33 T30A (human, UniProt P20138 18-364); experiment: flow cytometry, alanine scan
human CD33 T30A, sequence (P20138 18-364 T30A limits assumed): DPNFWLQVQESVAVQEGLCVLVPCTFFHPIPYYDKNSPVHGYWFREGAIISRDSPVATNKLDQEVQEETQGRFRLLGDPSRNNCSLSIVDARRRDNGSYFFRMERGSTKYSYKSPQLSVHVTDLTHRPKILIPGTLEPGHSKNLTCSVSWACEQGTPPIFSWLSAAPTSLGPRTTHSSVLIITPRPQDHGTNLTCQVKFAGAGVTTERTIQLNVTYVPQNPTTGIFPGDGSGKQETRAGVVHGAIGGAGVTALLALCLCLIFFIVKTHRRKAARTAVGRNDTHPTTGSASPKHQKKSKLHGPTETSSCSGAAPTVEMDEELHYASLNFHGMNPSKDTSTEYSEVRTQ

human CD33 C36A = human CD33 C36A (human, UniProt P20138 18-364); experiment: flow cytometry, alanine scan
human CD33 C36A, sequence (P20138 18-364 C36A limits assumed): as the sequence (P20138 18-364 T30A limits assumed) above, with A13T, C19A counted along it

human CD33 F43A = human CD33 F43A (human, UniProt P20138 18-364); experiment: flow cytometry, alanine scan
human CD33 F43A, sequence (P20138 18-364 F43A limits assumed): as the sequence (P20138 18-364 T30A limits assumed) above, with A13T, F26A counted along it

human CD33 T42A = human CD33 T42A (human, UniProt P20138 18-364); experiment: flow cytometry, alanine scan
human CD33 T42A, sequence (P20138 18-364 T42A limits assumed): as the sequence (P20138 18-364 T30A limits assumed) above, with A13T, T25A counted along it

human CD33 F44A = human CD33 F44A (human, UniProt P20138 18-364); experiment: flow cytometry, alanine scan
human CD33 F44A, sequence (P20138 18-364 F44A limits assumed): as the sequence (P20138 18-364 T30A limits assumed) above, with A13T, F27A counted along it

human CD33 V31A = human CD33 V31A (human, UniProt P20138 18-364); experiment: flow cytometry, alanine scan
human CD33 V31A, sequence (P20138 18-364 V31A limits assumed): as the sequence (P20138 18-364 T30A limits assumed) above, with A13T, V14A counted along it

human CD33 Q32A = human CD33 Q32A (human, UniProt P20138 18-364); experiment: flow cytometry, alanine scan
human CD33 Q32A, sequence (P20138 18-364 Q32A limits assumed): as the sequence (P20138 18-364 T30A limits assumed) above, with A13T, Q15A counted along it

human CD33 P40A = human CD33 P40A (human, UniProt P20138 18-364); experiment: flow cytometry, alanine scan
human CD33 P40A, sequence (P20138 18-364 P40A limits assumed): as the sequence (P20138 18-364 T30A limits assumed) above, with A13T, P23A counted along it

human CD33 Q26A = human CD33 Q26A (human, UniProt P20138 18-364); experiment: flow cytometry, alanine scan
human CD33 Q26A, sequence (P20138 18-364 Q26A limits assumed): as the sequence (P20138 18-364 T30A limits assumed) above, with Q9A, A13T counted along it

human CD33 L23A = human CD33 L23A (human, UniProt P20138 18-364); experiment: flow cytometry, alanine scan
human CD33 L23A, sequence (P20138 18-364 L23A limits assumed): as the sequence (P20138 18-364 T30A limits assumed) above, with L6A, A13T counted along it

human CD33 E33A = human CD33 E33A (human, UniProt P20138 18-364); experiment: flow cytometry, alanine scan
human CD33 E33A, sequence (P20138 18-364 E33A limits assumed): as the sequence (P20138 18-364 T30A limits assumed) above, with A13T, E16A counted along it

human CD33 V25A = human CD33 V25A (human, UniProt P20138 18-364); experiment: flow cytometry, alanine scan
human CD33 V25A, sequence (P20138 18-364 V25A limits assumed): as the sequence (P20138 18-364 T30A limits assumed) above, with V8A, A13T counted along it

human CD33 L35A = human CD33 L35A (human, UniProt P20138 18-364); experiment: flow cytometry, alanine scan
human CD33 L35A, sequence (P20138 18-364 L35A limits assumed): as the sequence (P20138 18-364 T30A limits assumed) above, with A13T, L18A counted along it

human CD33 V37A = human CD33 V37A (human, UniProt P20138 18-364); experiment: flow cytometry, alanine scan
human CD33 V37A, sequence (P20138 18-364 V37A limits assumed): as the sequence (P20138 18-364 T30A limits assumed) above, with A13T, V20A counted along it

human CD33 G34A = human CD33 G34A (human, UniProt P20138 18-364); experiment: flow cytometry, alanine scan
human CD33 G34A, sequence (P20138 18-364 G34A limits assumed): as the sequence (P20138 18-364 T30A limits assumed) above, with A13T, G17A counted along it

human CD33 Q24A = human CD33 Q24A (human, UniProt P20138 18-364); experiment: flow cytometry, alanine scan
human CD33 Q24A, sequence (P20138 18-364 Q24A limits assumed): as the sequence (P20138 18-364 T30A limits assumed) above, with Q7A, A13T counted along it

human CD33 S28A = human CD33 S28A (human, UniProt P20138 18-364); experiment: flow cytometry, alanine scan
human CD33 S28A, sequence (P20138 18-364 S28A limits assumed): as the sequence (P20138 18-364 T30A limits assumed) above, with S11A, A13T counted along it

human CD33 V29A = human CD33 V29A (human, UniProt P20138 18-364); experiment: flow cytometry, alanine scan
human CD33 V29A, sequence (P20138 18-364 V29A limits assumed): as the sequence (P20138 18-364 T30A limits assumed) above, with V12A, A13T counted along it

human CD33 L38A = human CD33 L38A (human, UniProt P20138 18-364); experiment: flow cytometry, alanine scan
human CD33 L38A, sequence (P20138 18-364 L38A limits assumed): as the sequence (P20138 18-364 T30A limits assumed) above, with A13T, L21A counted along it

human CD33 W22A = human CD33 W22A (human, UniProt P20138 18-364); experiment: flow cytometry, alanine scan
human CD33 W22A, sequence (P20138 18-364 W22A limits assumed): as the sequence (P20138 18-364 T30A limits assumed) above, with W5A, A13T counted along it

human CD33 F21A = human CD33 F21A (human, UniProt P20138 18-364); experiment: flow cytometry, alanine scan
human CD33 F21A, sequence (P20138 18-364 F21A limits assumed): as the sequence (P20138 18-364 T30A limits assumed) above, with F4A, A13T counted along it

human CD33 V39A = human CD33 V39A (human, UniProt P20138 18-364); experiment: flow cytometry, alanine scan
human CD33 V39A, sequence (P20138 18-364 V39A limits assumed): as the sequence (P20138 18-364 T30A limits assumed) above, with A13T, V22A counted along it

human CD33 C41A = human CD33 C41A (human, UniProt P20138 18-364); experiment: flow cytometry, alanine scan
human CD33 C41A, sequence (P20138 18-364 C41A limits assumed): as the sequence (P20138 18-364 T30A limits assumed) above, with A13T, C24A counted along it

human CD33 P19A = human CD33 P19A (human, UniProt P20138 18-364); experiment: flow cytometry, alanine scan
human CD33 P19A, sequence (P20138 18-364 P19A limits assumed): as the sequence (P20138 18-364 T30A limits assumed) above, with P2A, A13T counted along it

human CD33 D18A = human CD33 D18A (human, UniProt P20138 19-364); experiment: flow cytometry, alanine scan
human CD33 D18A, sequence (P20138 18-364 D18A limits assumed): as the sequence (P20138 18-364 T30A limits assumed) above, with D1A, A13T counted along it

human wild-type CD33 [1] = biological target: T1, human wild-type CD33 (human, UniProt P20138 18-364); experiment: flow cytometry, IgG at 0.50 ug/ml on HEK293-T cells expressing CD33 against vector alone
T1 construct: also called SIGLEC3; P67
T1 sequence (P20138 18-364 limits assumed): as the sequence (P20138 18-364 T30A limits assumed) above, with A13T counted along it
Method: (§1) Binding of the antibodies to the transfected cells and the optimal assay conditions were evaluated in 384-well format. Detection of cellular expression was measured via high-throughput flow cytometry. Serial dilutions of each antibody were tested for immunoreactivity against cells expressing CD33 or vector alone. The optimal screening concentration for each antibody was determined based on the raw signal values and signal-to-background calculations. Each point represents the mean of four replicates.

human wild-type CD33 [2] = biological target: T1, human wild-type CD33; experiment: flow cytometry, IgG at 0.25 ug/ml on HEK293-T cells expressing CD33 against vector alone
Method: as §1

human wild-type CD33 [3] = biological target: T1, human wild-type CD33; experiment: flow cytometry, IgG at 0.50 ug/ml on HEK293-T cells expressing CD33 against vector alone; remark: listed apart in the source
Method: as §1

human wild-type CD33 [4] = biological target: T1, human wild-type CD33; experiment: flow cytometry, Fab at 0.25 ug/ml on HEK293-T cells expressing CD33 against vector alone
Method: (§2) Serial dilutions of each Fab were tested for immunoreactivity against cells expressing wild-type CD33 or vector alone. The optimal screening concentration for the Fabs was determined based on the raw signal values and signal-to-background calculations. Each point represents the mean of four replicates.

human wild-type CD33 [5] = biological target: T1, human wild-type CD33; experiment: as above; remark: listed apart in the source
Method: as §2

human CD33 H45A, sequence (P20138 18-364 H45A limits assumed): as the sequence (P20138 18-364 T30A limits assumed) above, with A13T, H28A counted along it
human CD33 E27A, sequence (P20138 18-364 E27A limits assumed): as the sequence (P20138 18-364 T30A limits assumed) above, with E10A, A13T counted along it
human CD33 N20A, sequence (P20138 18-364 N20A limits assumed): as the sequence (P20138 18-364 T30A limits assumed) above, with N3A, A13T counted along it

B1: Refmab #5 (antibody, V domains shown)
VH: QVQLVQSGAEVKKPGASVKVSCKASGYTFTNYDINWVRQAPGQGLEWIGWIYPGDGSTKYNEKFKAKATLTADTSTSTAYMELRSLRSDDTAVYYCASGYEDAMDYWGQGTTVTVSS
VL: DIQMTQSPSSLSASVGDRVTINCKASQDINSYLSWFQQKPGKAPKTLIYRANRLVDGVPSRFSGSGSGQDYTLTISSLQPEDFATYYCLQYDEFPLTFGGGTKVEIK
notes: The alanine scan used IgG or Fab
Human CD33 N20A
  Mean % WT Binding: 94.4 % of WT
Human CD33 E27A
  Mean % WT Binding: 186 % of WT
Human CD33 H45A
  Mean % WT Binding: 58.4 % of WT
Human CD33 T30A
  Mean % WT Binding: 118 % of WT
Human CD33 C36A
  Mean % WT Binding: 137 % of WT
Human CD33 F43A
  Mean % WT Binding: 87.8 % of WT
Human CD33 T42A
  Mean % WT Binding: 115 % of WT
Human CD33 F44A
  Mean % WT Binding: 122 % of WT
Human CD33 V31A
  Mean % WT Binding: 112 % of WT
Human CD33 Q32A
  Mean % WT Binding: 148 % of WT
Human CD33 P40A
  Mean % WT Binding: 117 % of WT
Human CD33 Q26A
  Mean % WT Binding: 104 % of WT
Human CD33 L23A
  Mean % WT Binding: 118 % of WT
Human CD33 E33A
  Mean % WT Binding: 106 % of WT
Human CD33 V25A
  Mean % WT Binding: 143 % of WT
Human CD33 L35A
  Mean % WT Binding: 112 % of WT
Human CD33 V37A
  Mean % WT Binding: 148 % of WT
Human CD33 G34A
  Mean % WT Binding: 101 % of WT
Human CD33 Q24A
  Mean % WT Binding: 115 % of WT
Human CD33 S28A
  Mean % WT Binding: 105 % of WT
Human CD33 V29A
  Mean % WT Binding: 122 % of WT
Human CD33 L38A
  Mean % WT Binding: 180 % of WT
Human CD33 W22A
  Mean % WT Binding: 114 % of WT
Human CD33 F21A
  Mean % WT Binding: 197 % of WT
Human CD33 V39A
  Mean % WT Binding: 116 % of WT
Human CD33 C41A
  Mean % WT Binding: 30.9 % of WT
Human CD33 P19A
  Mean % WT Binding: 114 % of WT
Human CD33 D18A
  Mean % WT Binding: 139 % of WT

B2: Refmab #2 (antibody, human IgG1, V domains shown)
VH: QVQLVQSGAEVKKPGSSVKVSCKASGGTFSDYAISWVRQAPGQGLEWMGRIIPILGVADYAQKFQGRVTITADKSTRTAYMELSSLRSEDTAVYYCARNWADAFDIWGQGTMVTVSS
VL: DIQLTQSPSSLSASVGDRVTITCRASQGISSVLAWYQQKPGKAPKLLIYDASSLESGVPSRFSGSGSGTDFTLTISSLQPEDFATYYCQQFDSSITFGQGTKLEIK
notes: Full-length MAb format, human IgG1 Fc silent (PG-LALA)
Human wild-type CD33 [1]
  Signal:Background: 59 signal:background ratio

B3: Refmab #5 (antibody, human IgG1, V domains shown)
VH: B1 VH
VL: B1 VL
notes: as for B2
Human wild-type CD33 [2]
  Signal:Background: 37 signal:background ratio

B4: Refmab #6 (antibody, human IgG1, V domains shown)
VH: QVQLQQPGAEVVKPGASVKMSCKASGYTFTSYYIHWIKQTPGQGLEWVGVIYPGNDDISYNQKFQGKATLTADKSSTTAYMQLSSLTSEDSAVYYCAREVRLRYFDVWGQGTTVTVSS
VL: EIVLTQSPGSLAVSPGERVTMSCKSSQSVFFSSSQKNYLAWYQQIPGQSPRLLIYWASTRESGVPDRFTGSGSGTDFTLTISSVQPEDLAIYYCHQYLSSRTFGQGTKLEIK
notes: as for B2
Human wild-type CD33 [3]
  Signal:Background: 57 signal:background ratio

B5: Refmab #1 Fab fragment (Fab, V domains shown)
VH: EVQLVQSGAEVKKPGSSVKVSCKASGYTITDSNIHWVRQAPGQSLEWIGYIYPYNGGTDYNQKFKNRATLTVDNPTNTAYMELSSLRSEDTAFYYCVNGNPWLAYWGQGTLVTVSS
VL: DIQLTQSPSTLSASVGDRVTITCRASESLDNYGIRFLTWFQQKPGKAPKLLMYAASNQGSGVPSRFSGSGSGTEFTLTISSLQPDDFATYYCQQTKEVPWSFGQGTKVEVK
Human wild-type CD33 [4]
  Signal:Background: 33 signal:background ratio

B6: Refmab #6 Fab fragment (Fab, V domains shown)
VH: B4 VH
VL: B4 VL
Human wild-type CD33 [5]
  Signal:Background: 51 signal:background ratio
